Measurements: patent publication CN106084048A (UNIV SUN YAT SEN, dated 2016)

B1: 抗CD3单域抗体 C58 (VHH)
VHH: QVQLQESGGGLVQPGGSLRLSCAASGFTLDYYAIGWFRQAPGKEREGVSCISSGDGTTYYADSVKGRFTISRDNAKNTVYLQMNSLKPEDTAVYYCAAARTRKVISIATMTLDPKVFASWGQGTQVTVSS
notes: Llama sdAb from a phage library; Tested as unpurified sdAb-SASA protein in E. coli expression medium / culture supernatant (FASEBA format); 3 in its text; also called sdAb C58; not shown: SASA fusion partner of the pFASEBA vector (sdAb-SASA protein in the expression medium)
B2: 抗CD3单域抗体 C57 (VHH)
VHH: QVQLQESGGGLVQAGDSLRLSCAASGRTFSSYVMGWFRQAPGKEREFVAAIRWSGGSTYYADSVKGRFTISRDNAKNTMYLQMNSLKPEDTAVYYCAAAQKINTDVTGAYWGQGTQVTVSS
notes: Llama sdAb from a phage library; Tested as unpurified sdAb-SASA protein in E. coli expression medium / culture supernatant (FASEBA format); 1 in its text; also called sdAb C57; not shown: SASA fusion partner of the pFASEBA vector (sdAb-SASA protein in the expression medium)

Legend:
CD3 on Jurkat cells [1] = target: CD3 on Jurkat cells (UniProt P07766); assay: flow cytometry, culture supernatant on Jurkat cells (negative control)
CD3 on Jurkat cells [2] = target: CD3 on Jurkat cells (UniProt P07766); assay: flow cytometry, culture supernatant on Jurkat cells
CD3-His蛋白(MP-5) = target: T1, CD3-His蛋白(MP-5) (UniProt P07766 23-126); assay: BLI (Octet RED96), sdAb-SASA from expression medium captured on BSA-coated biosensor, 100 nM CD3 in solution, 1:1 Langmuir fit, 30°C
T1 construct: Immunogen and panning antigen; The Octet method speaks only of 'CD3蛋白' in solution at 100 nM; also called CD3蛋白; not shown: His tag
T1 sequence (P07766 23-126): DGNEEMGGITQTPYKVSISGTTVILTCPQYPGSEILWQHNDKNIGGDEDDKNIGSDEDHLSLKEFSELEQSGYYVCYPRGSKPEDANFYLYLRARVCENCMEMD

Row | Molecule | MFI (CD3 on Jurkat cells [1]) [MFI] | MFI (CD3 on Jurkat cells [2]) [MFI] | koff (CD3-His蛋白(MP-5)) [s⁻¹]
1 | NC-sdAb(相同形式的非相关性sdAb) (VHH) | 115 |  | 
2 | B1 |  | 245 | 3.91e-05
3 | B2 |  | 213 | 4.6e-05
